# In patent US20100284921A1:
# Target: human polyomavirus (JC virus) T-antigen (JC virus (human polyomavirus))
# Assay: competition on T-antigen positive cells, 1 hour: 100-fold excess of unconjugated pAb416 against the ^125I 8 Ab/CLIO conjugate
substance,measurement,value
"pAb416, a monoclonal antibody against T-antigen (IgG, not coupled to CLIO)",percent decrease of binding and internalization of ^125I-Ab-CLIO,> 80%
